Laboratory results: PMC3020915
Several values for one entry are separate records, joined by “and”; a condition that tells them apart may be missing. Equal values may be shown once.

Target: GST-Rif Q75L (UniProt Q9HBH0)
Assay: pull-down

Row | fold increase of band intensity over the GST control | Binder
1 | 6 fold and 9.2 fold | MBP-NtΔBD (mDia2 91-528) (domain or fragment) NNPKALPESEVLKLFEKMMEDMNLNEDKKAPLREKDFGIKKEMVMQYINTASKTGSLRSSRQISPQEFLHELKMGYTDERLFTYLESLRVSLTSHPVSWVQSFGHEGLGLLLDILEKLINGQIQEKVVKKTQHKVIQCLRALMNTQYGLERIMSDKRSLSLLAKAMDPRQPAMMADVVKLLSAVCIVGEESILEEVLEALTSAGEERKIDRFFSIVEGLRHNSVNLQVACMQLINALVTSPDDLDFRLHLRNEFMRCGLKEILPNLKGIKNDGLDIQLKVFDEHKEEDLSEFFHRLEDIRAELDEASDVYSMLWDTVKETRAEGHFLSILQHLLLIRNDRFIREQYFKLIDECVSQIVLHRDGTDPDFTYRKRLDLDLSQFVDVCIDQAKLDEWEEKASEHCKKFEKECTDHQETQAQLQKREAKINELQAELQAFKS
2 | 2.4 fold and 3.8 fold | MBP-Nt (mDia2 N-terminus, 1-528) (domain or fragment) MERHRARALGRDSKSSRRKGLQSAPPAGPYEPGEKRPKLHLNIRTLTDDMLDKFASIRIPGSKKERPPLPHLKTVSGISDSSSLSSETMENNPKALPESEVLKLFEKMMEDMNLNEDKKAPLREKDFGIKKEMVMQYINTASKTGSLRSSRQISPQEFLHELKMGYTDERLFTYLESLRVSLTSHPVSWVQSFGHEGLGLLLDILEKLINGQIQEKVVKKTQHKVIQCLRALMNTQYGLERIMSDKRSLSLLAKAMDPRQPAMMADVVKLLSAVCIVGEESILEEVLEALTSAGEERKIDRFFSIVEGLRHNSVNLQVACMQLINALVTSPDDLDFRLHLRNEFMRCGLKEILPNLKGIKNDGLDIQLKVFDEHKEEDLSEFFHRLEDIRAELDEASDVYSMLWDTVKETRAEGHFLSILQHLLLIRNDRFIREQYFKLIDECVSQIVLHRDGTDPDFTYRKRLDLDLSQFVDVCIDQAKLDEWEEKASEHCKKFEKECTDHQETQAQLQKREAKINELQAELQAFKS
